Columns and labels:
[1] = target: T1, mouse IL-10 receptor (IL-10R) on T cells and B cells of C57BL/6 mouse splenocytes (mouse) (UniProt Q61727); test: cell-based or functional assay
T1 sequence (looked up) 1: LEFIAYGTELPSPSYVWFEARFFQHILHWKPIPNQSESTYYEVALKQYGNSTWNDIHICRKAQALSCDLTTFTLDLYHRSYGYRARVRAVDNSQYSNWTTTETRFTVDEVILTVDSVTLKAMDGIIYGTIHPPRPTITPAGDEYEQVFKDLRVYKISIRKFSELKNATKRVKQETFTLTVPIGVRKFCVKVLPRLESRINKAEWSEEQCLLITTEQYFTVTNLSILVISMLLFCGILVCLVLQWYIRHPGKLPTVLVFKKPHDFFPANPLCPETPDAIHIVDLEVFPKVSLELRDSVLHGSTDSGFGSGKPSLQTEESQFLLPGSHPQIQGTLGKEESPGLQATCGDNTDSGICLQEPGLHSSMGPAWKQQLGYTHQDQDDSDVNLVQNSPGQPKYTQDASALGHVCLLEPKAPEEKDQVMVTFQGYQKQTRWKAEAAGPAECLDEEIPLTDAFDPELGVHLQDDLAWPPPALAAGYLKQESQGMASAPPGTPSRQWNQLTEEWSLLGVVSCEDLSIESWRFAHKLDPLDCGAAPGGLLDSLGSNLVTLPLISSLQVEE
T1 sequence (looked up) 2: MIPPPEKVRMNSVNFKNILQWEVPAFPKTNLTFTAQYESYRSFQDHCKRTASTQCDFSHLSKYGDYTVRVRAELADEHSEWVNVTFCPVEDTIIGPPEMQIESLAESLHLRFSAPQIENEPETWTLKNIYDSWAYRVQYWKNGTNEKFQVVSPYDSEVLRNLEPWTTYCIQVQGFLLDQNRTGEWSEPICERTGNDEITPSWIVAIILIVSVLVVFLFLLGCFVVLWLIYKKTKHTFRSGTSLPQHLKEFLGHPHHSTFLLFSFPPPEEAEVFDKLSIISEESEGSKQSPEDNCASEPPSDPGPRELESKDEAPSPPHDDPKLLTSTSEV

[2] = target: human IL-10 receptor (IL-10R) on T cells and B cells of human whole blood (human) (UniProt Q13651); test: cell-based or functional assay
Sequence of human IL-10 receptor (IL-10R) on T cells and B cells of human whole blood (human) (Q13651 22-578, chain 1 of 2): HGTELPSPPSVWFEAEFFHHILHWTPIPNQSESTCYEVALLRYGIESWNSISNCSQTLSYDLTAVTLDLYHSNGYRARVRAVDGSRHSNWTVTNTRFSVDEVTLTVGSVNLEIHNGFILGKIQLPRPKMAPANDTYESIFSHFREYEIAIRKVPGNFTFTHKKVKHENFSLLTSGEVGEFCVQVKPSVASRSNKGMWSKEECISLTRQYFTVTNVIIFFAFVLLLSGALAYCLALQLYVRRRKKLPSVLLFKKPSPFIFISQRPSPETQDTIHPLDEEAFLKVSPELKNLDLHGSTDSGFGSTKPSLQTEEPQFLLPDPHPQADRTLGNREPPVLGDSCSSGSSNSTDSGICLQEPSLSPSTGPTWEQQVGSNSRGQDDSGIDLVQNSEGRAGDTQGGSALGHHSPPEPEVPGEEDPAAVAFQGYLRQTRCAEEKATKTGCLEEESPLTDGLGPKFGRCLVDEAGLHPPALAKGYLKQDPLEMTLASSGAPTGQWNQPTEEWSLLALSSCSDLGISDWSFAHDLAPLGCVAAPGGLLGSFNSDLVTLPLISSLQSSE
Sequence of human IL-10 receptor (IL-10R) on T cells and B cells of human whole blood (human) (Q08334 20-325, chain 2 of 2, further chain): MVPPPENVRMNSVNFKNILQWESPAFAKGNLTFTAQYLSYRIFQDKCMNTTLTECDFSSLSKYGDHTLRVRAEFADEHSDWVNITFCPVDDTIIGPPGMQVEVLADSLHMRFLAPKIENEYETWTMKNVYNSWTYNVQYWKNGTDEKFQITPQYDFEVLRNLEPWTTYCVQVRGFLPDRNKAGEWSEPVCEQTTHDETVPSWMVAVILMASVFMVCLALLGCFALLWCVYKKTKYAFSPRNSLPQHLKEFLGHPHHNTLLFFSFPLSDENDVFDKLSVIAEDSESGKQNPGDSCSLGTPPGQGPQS

Substance	STAT3 phosphorylation (pY705), flow cytometry, B cells of C57BL/6 mouse splenocytes (CD19 + B cells), EC50 [1] [pM]	STAT3 phosphorylation (pY705), flow cytometry, CD3+ T cells of C57BL/6 mouse splenocytes, EC50 [1] [pM]	STAT3 phosphorylation (pY705), flow cytometry, CD3+ T cells in human whole blood, EC50 [2] [pM]	STAT3 phosphorylation (pY705), flow cytometry, CD19+ B cells in human whole blood, EC50 [2] [pM]
mIgG1-D265A-Fc-(G4S)4-mIL-10 (Fc fusion)	125	441		
5KPEG-hIL-10 (human IL-10 conjugated to 5 KD PEG) (from UniProt P22301 19-178) (ligand)			167	347
